This note sets out measurements from the supplement of paper PMC7877785.

± gives the uncertainty stated by the source.

A short description of the data set: self-splicing fitness, log relative to wild type (ln ratio); higher = more splicing; Tetrahymena group I intron in knt gene, E. coli kanamycin selection, DiMSum; sequences stand for … in CUCUCU…GGAGGGAAAAGUUAUCAGGCAUGCACCUGGUAGCUAGUCUUUAAACCAAUAGAUUGCAUCGGUUUAAAAGGCAAGACCGUCAAAUUGCGGGAAAGGGGUCAACAGCCGUUCAGUACCAAGUCUCAGGGGAAACUUUGAGAUGGCCUUGCAAAGGGUAUGGUAAUAAGCUGACGGACAUGGUCCUAACCACGCAGCCAAGUCCUAAGUCAACAGAUCUUCUGUUGAUAUGGAUGCAGUUCACAGACUAAAUGUCGGUCGGGGAAGAUGUAUUCUUCUCAUAAGAUAUAGUCGGACCUCUCCUUAAUGGGAGCUAGCGGAUGAAGUGAUGCAACACUGGAGCCGCUGGGAACUAAUUUGUAUGCGAAAGUAUAUUGAUUAGUUUUGGAGUACUCGUGGUCG
A digest of the protocol: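 Library with all eight P1ex-region intron nucleotides randomised, intron inside the knt kanamycin-resistance gene on pET-22b(+), in E. coli BL21(DE3). Cells grew overnight at 37°C or 30°C on LB agar with or without 25 μg/mL kanamycin (plus 100 μg/mL carbenicillin, 50 μM IPTG, 0.2% rhamnose), in six replicate transformations. Pooled colonies were amplicon-sequenced on Illumina HiSeq 2500. DiMSum fitness is the error-weighted combination of wild-type-normalised replicate fold changes, kanamycin versus none.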

Take CUGAAGCAAUAUUACGUCGG: the “self-splicing fitness (ln)” value by setting is: (30 °C) -3.11 ± 0.18; (37 °C) -1.14 ± 0.16.

For CUGAAGCAAUAUUACGUCUU, the “self-splicing fitness (ln)” value is -3.7 ± 0.24 (30 °C) and -2.64 ± 0.25 (37 °C).

Turning to CUGAAGCAAUAUUACGUUCU, the “self-splicing fitness (ln)” value runs as follows: (30 °C) -3.39 ± 0.22; (37 °C) -3.45 ± 0.37.

Consider CUGAAGCAAUAUUACGUUGG, for which the “self-splicing fitness (ln)” value (30 °C) was -2.84 ± 0.13 and the “self-splicing fitness (ln)” value (37 °C) is -1.58 ± 0.13.

With CUGCAGCAAUAUUACGAGAA, the “self-splicing fitness (ln)” value by setting is: (30 °C) -2.56 ± 0.35; (37 °C) -2.64 ± 0.33.

Take CUGCAGCAAUAUUACGAGAU: the “self-splicing fitness (ln)” value (30 °C) was -3.69 ± 0.34.

Regarding CUGCAGCAAUAUUACGAUGA, the “self-splicing fitness (ln)” value is, setting by setting: (30 °C) -3.75 ± 0.22; (37 °C) -2.45 ± 0.23.

As for CUGCAGCAAUAUUACGAUGU, the “self-splicing fitness (ln)” value (30 °C) was -3.96 ± 0.23 and the “self-splicing fitness (ln)” value (37 °C) is -2.71 ± 0.3.

Turning to CUGCAGCAAUAUUACGAUUG, the “self-splicing fitness (ln)” value was -0.725 ± 0.06 (30 °C) and -0.488 ± 0.074 (37 °C).

Consider CUGCAGCAAUAUUACGCAUA, for which the “self-splicing fitness (ln)” value is, setting by setting: (30 °C) -2.84 ± 0.2; (37 °C) -2.73 ± 0.17.

On to CUGCAGCAAUAUUACGCCAG, for which the “self-splicing fitness (ln)” value (30 °C) is -2.56 ± 0.42 and the “self-splicing fitness (ln)” value (37 °C) was -1.07 ± 0.21.

Turning to CUGCAGCAAUAUUACGCCAU, the “self-splicing fitness (ln)” value was -3.9 ± 0.2 (30 °C) and -3.42 ± 0.17 (37 °C).

With CUGCAGCAAUAUUACGCGCC, the “self-splicing fitness (ln)” value is -3.33 ± 0.33 (30 °C) and -2.17 ± 0.24 (37 °C).

As to CUGCAGCAAUAUUACGCUCU, the “self-splicing fitness (ln)” value is -3.52 ± 0.41 (30 °C) and -2.27 ± 0.25 (37 °C).

For the sequence CUGCAGCAAUAUUACGCUUA, the “self-splicing fitness (ln)” value runs as follows: (30 °C) -3.04 ± 0.29; (37 °C) -3.98 ± 0.46.

For CUGCAGCAAUAUUACGGAAU, the “self-splicing fitness (ln)” value runs as follows: (30 °C) -5.11 ± 0.45; (37 °C) -2.74 ± 0.32.

Consider CUGCAGCAAUAUUACGGAGA, for which the “self-splicing fitness (ln)” value is -3.35 ± 0.22 (30 °C) and -2.83 ± 0.34 (37 °C).

As for CUGCAGCAAUAUUACGGAGC, the “self-splicing fitness (ln)” value is, setting by setting: (30 °C) -3.93 ± 0.47; (37 °C) -2.61 ± 0.31.

In the case of CUGCAGCAAUAUUACGGCCC, the “self-splicing fitness (ln)” value (30 °C) is -2.85 ± 0.36.

Turning to CUGCAGCAAUAUUACGGCGA, the “self-splicing fitness (ln)” value was -0.954 ± 0.14 (30 °C) and -0.847 ± 0.13 (37 °C).

CUGCAGCAAUAUUACGGCGG: the “self-splicing fitness (ln)” value was -3.57 ± 0.25 (30 °C) and -2.23 ± 0.28 (37 °C).

As for CUGCAGCAAUAUUACGGGAC, the “self-splicing fitness (ln)” value (30 °C) is -2.53 ± 0.22 and the “self-splicing fitness (ln)” value (37 °C) is -0.85 ± 0.17.

CUGCAGCAAUAUUACGGGGG: the “self-splicing fitness (ln)” value is, setting by setting: (30 °C) -2.95 ± 0.18; (37 °C) -2.6 ± 0.21.

CUGCAGCAAUAUUACGGGUC: the “self-splicing fitness (ln)” value (30 °C) was -3.51 ± 0.23 and the “self-splicing fitness (ln)” value (37 °C) was -3.07 ± 0.31.

Turning to CUGCAGCAAUAUUACGGUGC, the “self-splicing fitness (ln)” value reads like this: (30 °C) -3.97 ± 0.24; (37 °C) -1.96 ± 0.23.

Consider CUGCAGCAAUAUUACGGUUC, for which the “self-splicing fitness (ln)” value is, setting by setting: (30 °C) -3.41 ± 0.1; (37 °C) -2.48 ± 0.13.

On to CUGCAGCAAUAUUACGUCCU, for which the “self-splicing fitness (ln)” value was -3.82 ± 0.37 (30 °C) and -1.31 ± 0.31 (37 °C).

For CUGCAGCAAUAUUACGUCGG, the “self-splicing fitness (ln)” value reads like this: (30 °C) -3.32 ± 0.18; (37 °C) -1.98 ± 0.2.

Take CUGCAGCAAUAUUACGUGAU: the “self-splicing fitness (ln)” value (30 °C) was -1.19 ± 0.072 and the “self-splicing fitness (ln)” value (37 °C) was -0.758 ± 0.12.

CUGCAGCAAUAUUACGUUAC: the “self-splicing fitness (ln)” value is, setting by setting: (30 °C) -4.46 ± 0.28; (37 °C) -3.08 ± 0.24.

Turning to CUGCAGCAAUAUUACGUUGU, the “self-splicing fitness (ln)” value is -4.62 ± 0.25 (30 °C) and -2.54 ± 0.2 (37 °C).

Turning to CUGCAGCAAUAUUACGUUUU, the “self-splicing fitness (ln)” value was -3.97 ± 0.19 (30 °C) and -3.27 ± 0.21 (37 °C).

As for CUGGAGCAAUAUUACGAAAG, for the setting “30 °C”, the “self-splicing fitness (ln)” value was -3.51 ± 0.4.

As to CUGGAGCAAUAUUACGACAG, the “self-splicing fitness (ln)” value (30 °C) is -4.83 ± 0.31 and the “self-splicing fitness (ln)” value (37 °C) was -2.42 ± 0.49.
